For assay [1], the system named is NF-κB. The assay is described as follows: NF-κB activation in HeLa cells transfected with receptor plasmids (electrophoretic mobility shift assay). It is filed as cell-based, human. The settings on record: harvested 24 hours after transfection, FIG. 12A. The procedure:
HeLa cells were transfected with pRK5 expression plasmids encoding full-length native sequence Apo-2, DR4 or Apo-3 and harvested 24 hours after transfection. […] Immunol., 153:5274-5284 (1994)], alone or together with a 50-fold excess of unlabelled probe, or with an irrelevant ^32P-labelled synthetic oligonucleotide […] NO: 13). In some samples, antibody to p65/RelA subunits of NF-κB (1 μg/ml; Santa Cruz Biotechnology) was added. DNA binding was analyzed by an electrophoretic mobility shift assay as described by Hsu et al., supra; Marsters et al., supra, and MacKay et al., supra.
(In EMSA bound probe runs differently from free probe, usually more slowly.)

For assay [2], the system named is Apo-2L. The assay is described as follows: Binding of radioiodinated Apo-2L to Apo-2DcR-transfected 293 cells. The settings on record: 125I-Apo-2L; 293 cells transfected with full-length Apo-2DcR vs pRK5; FIG. 4. On the procedure: To test whether Apo-2DcR binds to Apo-2L, and to assess whether Apo-2DcR is GPI-linked, binding of radioiodinated Apo-2L to Apo-2DcR-transfected 293 cells was analyzed. The effect of pre-treatment of the cells with phosphatidylinositol-specific phospholipase C (PI-PLC) on the binding was also analyzed.
Sequence of Apo-2L (P50591 114-281 limits assumed): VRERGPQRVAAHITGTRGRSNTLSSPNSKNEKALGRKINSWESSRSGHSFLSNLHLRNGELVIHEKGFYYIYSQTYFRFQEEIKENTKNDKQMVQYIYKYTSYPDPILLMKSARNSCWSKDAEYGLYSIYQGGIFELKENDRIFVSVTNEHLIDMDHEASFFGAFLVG
Sequence of Apo-2L (O14798 26-236 partner limits assumed): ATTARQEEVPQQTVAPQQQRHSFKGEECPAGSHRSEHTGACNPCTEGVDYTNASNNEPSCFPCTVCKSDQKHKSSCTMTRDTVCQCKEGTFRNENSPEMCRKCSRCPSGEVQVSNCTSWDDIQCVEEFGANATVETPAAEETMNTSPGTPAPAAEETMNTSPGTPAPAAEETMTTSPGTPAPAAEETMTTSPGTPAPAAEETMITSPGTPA
Human 293 cells (ATCC CRL 1573) were plated in 100 mm plates (1×10^6 cells/plate) and transfected with 20 μg/plate pRK5 or pRK5 encoding the full-length Apo-2DcR (described in Example 1, ATCC deposit 209087) using calcium phosphate precipitation. After 24 hours, the cells were harvested in PBS/10 mM EDTA, washed in phosphate buffered saline (PBS), resuspended in 2 ml PBS per original plate and divided into two 1 ml aliquots per transfection. PI-PLC [Treanor et al., Nature, 382:80-83 (1996)] (1 μg/ml) was added to one of the two aliquots derived from each transfection, and the cells were incubated 1 hour at 37° C. The cells were washed and respuspended in 1 ml PBS containing 1% BSA (Sigma), and 0.04 ml aliquots were placed into tubes in triplicate. […] After a 1 hour incubation at room temperature, the cells were washed in ice cold PBS, pelleted, and counted for radioactivity.

Assay [3] deals with Human 293 cells. Put plainly: Apo-2L apoptosis induction in Apo-2DcR-transfected 293 cells (morphology of GFP-positive cells). The settings on record: 293 cells transfected with pRK5-hApo-2DcR; Apo-2L 0.5 μg/ml; examined over 6 hours; FIG. 5. It is filed as cell-based. On the procedure: Human 293 cells, which express both DR4 and Apo-2 mRNA (data not shown), were plated in 100 mm plates (1×10^6 cells/plate) and transfected with 3 μg per plate pRK encoding green fluorescent protein (GFP; purchased from Clontech) together with 20 μg/plate pRK5 or pRK5-hApo-2DcR (see Example 2) using calcium phosphate precipitation. After 18 hours, the cells were treated with PBS or with Apo-2L (Pitti et al., supra, 0.5 μg/ml) and examined over 6 hours under a fluorescence microscope equipped with Hoffman optics (which enables clear viewing of non-fixed cells on plastic). GFP-positive cells were identified by green fluorescence and scored for apoptosis by morphologic criteria such as membrane blebbing and cytoplasmic condensation.

For assay [4], the system named is NF-κB. Put plainly: Activation of NF-κB by Apo-2L in Apo-2DcR-transfected 293 cells (electrophoretic mobility shift assay). It is filed as cell-based, human. As to conditions: 293 cells transfected with pRK5-hApo-2DcR, 18 hours; Apo-2L 0.5 μg/ml; FIG. 6. On the procedure:
In a similar experiment, the 293 cells were transfected by pRK5 or pRK5-hApo-2DcR (20 μg/plate) and analyzed 18 hours later for activation of NF-κB by Apo-2L (0.5 μg/ml), as in Example 10 below.
HeLa cells were transfected with pRK5 expression plasmids encoding full-length native sequence Apo-2, DR4 or Apo-3 and harvested 24 hours after transfection. Nuclear extracts were prepared and 1 μg of nuclear protein was reacted with a ^32P-labelled NF-κB-specific synthetic oligonucleotide probe […] (SEQ ID NO: 12) [see, also, MacKay et al., J. Immunol., 153:5274-5284 (1994)], alone or together with a 50-fold excess of unlabelled probe, or with an irrelevant ^32P-labelled synthetic oligonucleotide […] (SEQ ID NO: 13). In some samples, antibody to p65/RelA subunits of NF-κB (1 μg/ml; Santa Cruz Biotechnology) was added. DNA binding was analyzed by an electrophoretic mobility shift assay as described by Hsu et al., supra; Marsters et al., supra, and MacKay et al., supra.

B1: Apo-3/DR3: full length native sequence human TNFR family polypeptide with cytoplasmic death domain; expressed by transfection (protein, UniProt Q93038 1-417, looked up)
chain: MEQRPRGCAAVAAALLLVLLGARAQGGTRSPRCDCAGDFHKKIGLFCCRGCPAGHYLKAPCTEPCGNSTCLVCPQDTFLAWENHHNSECARCQACDEQASQVALENCSAVADTRCGCKPGWFVECQVSQCVSSSPFYCQPCLDCGALHRHTRLLCSRRDTDCGTCLPGFYEHGDGCVSCPTSTLGSCPERCAAVCGWRQMFWVQVLLAGLVVPLLLGATLTYTYRHCWPHKPLVTADEAGMEALTPPPATHLSPLDSAHTLLAPPDSSEKICTVQLVGNSWTPGYPETQEALCPQVTWSWDQLPSRALGPAAAPTLSPESPAGSPAMMLQPGPQLYDVMDAVPARRWKEFVRTLGLREAEIEAVEVEIGRFRDQQYEMLKRWRQQQPAGLGAVYAALERMGLDGCVEDLRSRLQRGP
modifications: full-length
notes: expressed by transfection
For the molecule B1, the “NF-κB activation upon transfection” value in assay [1] was “activation observed”.

B2: Apo-2DcR: full-length native sequence human Apo-2DcR polypeptide, 259 amino acids, GPI-anchored TNFR family member; expressed by transfection (protein)
chain: ATTARQEEVPQQTVAPQQQRHSFKGEECPAGSHRSEHTGACNPCTEGVDYTNASNNEPSCFPCTVCKSDQKHKSSCTMTRDTVCQCKEGTFRNENSPEMCRKCSRCPSGEVQVSNCTSWDDIQCVEEFGANATVETPAAEETMNTSPGTPAPAAEETMNTSPGTPAPAAEETMTTSPGTPAPAAEETMTTSPGTPAPAAEETMTTSPGTPA
With B2, the “amount of specific Apo-2L binding” value in assay [2] was “marked increase”. Moreover, the “responsiveness to Apo-2L as measured by apoptosis induction” value in assay [3] is “markedly reduced”. Moreover, the “Apo-2L function as measured by NF-κB activation” value in assay [4] is reported as “inhibits Apo-2L function”.

Values taken from US20020161202A1, “Apo-2DcR” (Genentech, Inc., priority 1997, published 2002).
